Assay results: the Human Domainome abundance scans (Beltran et al. 2025)
± gives the uncertainty stated by the source.

B1: POU domain, class 3, transcription factor 2, residues 262 to 338; numbered along this chain, P20265 (parent)
chain: EDTPTSDDLEQFAKQFKQRRIKLGFTQADVGLALGTLYGNVFSQTTICRFEALQLSFKNMCKLKPLLNKWLEEADSS

Variants of: B1
Assay: abundance fitness (aPCA) (normalised: wild type 0, dead -1); higher = more abundant; growth selection in yeast, the domain comes from the species named
Settings: Homo sapiens

**Q.** Which abundance fitness does the source give for EDTPTSDDLEQFAKQFKQRRIKLGFTQADVGLALGTLYGNVFSQTTICRFEALQLSFKNMCKLKPLTNKWLEEADSS [L67T] here?
**A.** -0.407 ± 0.32

**Q.** With EDTPTSDDLEQFAKQFKQRRIKLGFTQADVGLALGTLYGNVFSQTTICRFEALQLSFKNMCKLKPLKNKWLEEADSS [L67K] as the variant, how does the abundance fitness read?
**A.** -0.688 ± 0.18

**Q.** Which abundance fitness does the source give for EDTPTSDDLEQFAKQFKQRRIKLGFTQADVGLALGTLYGNVFSQTTICRFEALQLSFKNMCKLKPLGNKWLEEADSS [L67G] here?
**A.** -1.05 ± 0.21

**Q.** Which abundance fitness does the source give for EDTPTSDDLEQFAKQFKQRRIKLGFTQADVGLALGTLYGNVFSQTTICRFEALQLSFKNMCKLKPLFNKWLEEADSS [L67F] here?
**A.** -0.399 ± 0.2

**Q.** For EDTPTSDDLEQFAKQFKQRRIKLGFTQADVGLALGTLYGNVFSQTTICRFEALQLSFKNMCKLKPLCNKWLEEADSS [L67C], which abundance fitness is on record?
**A.** -0.504 ± 0.23

**Q.** Which abundance fitness does the source give for EDTPTSDDLEQFAKQFKQRRIKLGFTQADVGLALGTLYGNVFSQTTICRFEALQLSFKNMCKLKPLANKWLEEADSS [L67A] here?
**A.** -0.553 ± 0.12

**Q.** Which abundance fitness does the source give for EDTPTSDDLEQFAKQFKQRRIKLGFTQADVGLALGTLYGNVFSQTTICRFEALQLSFKNMCKLKPLPNKWLEEADSS [L67P] here?
**A.** -0.654 ± 0.16

**Q.** With EDTPTSDDLEQFAKQFKQRRIKLGFTQADVGLALGTLYGNVFSQTTICRFEALQLSFKNMCKLKPLENKWLEEADSS [L67E] as the variant, how does the abundance fitness read?
**A.** -0.936 ± 0.27

**Q.** Which abundance fitness does the source give for EDTPTSDDLEQFAKQFKQRRIKLGFTQADVGLALGTLYGNVFSQTTICRFEALQLSFKNMCKLKPLSNKWLEEADSS [L67S] here?
**A.** -0.619 ± 0.13

**Q.** Which abundance fitness does the source give for EDTPTSDDLEQFAKQFKQRRIKLGFTQADVGLALGTLYGNVFSQTTICRFEALQLSFKNMCKLKPLWNKWLEEADSS [L67W] here?
**A.** -0.798 ± 0.16

**Q.** With EDTPTSDDLEQFAKQFKQRRIKLGFTQADVGLALGTLYGNVFSQTTICRFEALQLSFKNMCKLKPLDNKWLEEADSS [L67D] as the variant, how does the abundance fitness read?
**A.** -0.759 ± 0.43

**Q.** With EDTPTSDDLEQFAKQFKQRRIKLGFTQADVGLALGTLYGNVFSQTTICRFEALQLSFKNMCKLKPLVNKWLEEADSS [L67V] as the variant, how does the abundance fitness read?
**A.** -0.525 ± 0.099

**Q.** With EDTPTSDDLEQFAKQFKQRRIKLGFTQADVGLALGTLYGNVFSQTTICRFEALQLSFKNMCKLWPLLNKWLEEADSS [K64W] as the variant, how does the abundance fitness read?
**A.** -0.199 ± 0.04

**Q.** With EDTPTSDDLEQFAKQFKQRRIKLGFTQADVGLALGTLYGNVFSQTTICRFEALQLSFKNMCKLNPLLNKWLEEADSS [K64N] as the variant, how does the abundance fitness read?
**A.** -0.944 ± 0.26

**Q.** Which abundance fitness does the source give for EDTPTSDDLEQFAKQFKQRRIKLGFTQADVGLALGTLYGNVFSQTTICRFEALQLSFKNMCKLYPLLNKWLEEADSS [K64Y] here?
**A.** -0.019 ± 0.068

**Q.** Which abundance fitness does the source give for EDTPTSDDLEQFAKQFKQRRIKLGFTQADVGLALGTLYGNVFSQTTICRFEALQLSFKNMCKLMPLLNKWLEEADSS [K64M] here?
**A.** -0.06 ± 0.05

**Q.** For EDTPTSDDLEQFAKQFKQRRIKLGFTQADVGLALGTLYGNVFSQTTICRFEALQLSFKNMCKLTPLLNKWLEEADSS [K64T], which abundance fitness is on record?
**A.** -0.118 ± 0.045

**Q.** With EDTPTSDDLEQFAKQFKQRRIKLGFTQADVGLALGTLYGNVFSQTTICRFEALQLSFKNMCKLRPLLNKWLEEADSS [K64R] as the variant, how does the abundance fitness read?
**A.** -0.092 ± 0.031

**Q.** Which abundance fitness does the source give for EDTPTSDDLEQFAKQFKQRRIKLGFTQADVGLALGTLYGNVFSQTTICRFEALQLSFKNMCKLHPLLNKWLEEADSS [K64H] here?
**A.** -0.051 ± 0.074

**Q.** Which abundance fitness does the source give for EDTPTSDDLEQFAKQFKQRRIKLGFTQADVGLALGTLYGNVFSQTTICRFEALQLSFKNMCKLEPLLNKWLEEADSS [K64E] here?
**A.** -0.3 ± 0.046

**Q.** With EDTPTSDDLEQFAKQFKQRRIKLGFTQADVGLALGTLYGNVFSQTTICRFEALQLSFKNMCKLQPLLNKWLEEADSS [K64Q] as the variant, how does the abundance fitness read?
**A.** -0.067 ± 0.045

**Q.** With EDTPTSDDLEQFAKQFKQRRIKLGFTQADVGLALGTLYGNVFSQTTICRFEALQLSFKNMCKLGPLLNKWLEEADSS [K64G] as the variant, how does the abundance fitness read?
**A.** -0.449 ± 0.037

**Q.** For EDTPTSDDLEQFAKQFKQRRIKLGFTQADVGLALGTLYGNVFSQTTICRFEALQLSFKNMCKLFPLLNKWLEEADSS [K64F], which abundance fitness is on record?
**A.** -0.264 ± 0.1

**Q.** For EDTPTSDDLEQFAKQFKQRRIKLGFTQADVGLALGTLYGNVFSQTTICRFEALQLSFKNMCKLSPLLNKWLEEADSS [K64S], which abundance fitness is on record?
**A.** -0.226 ± 0.042

**Q.** For EDTPTSDDLEQFAKQFKQRRIKLGFTQADVGLALGTLYGNVFSQTTICRFEALQLSFKNMCKLDPLLNKWLEEADSS [K64D], which abundance fitness is on record?
**A.** -1.06 ± 0.23

**Q.** Which abundance fitness does the source give for EDTPTSDDLEQFAKQFKQRRIKLGFTQADVGLALGTLYGNVFSQTTICRFEALQLSFKNMCKLLPLLNKWLEEADSS [K64L] here?
**A.** -0.131 ± 0.037

**Q.** Which abundance fitness does the source give for EDTPTSDDLEQFAKQFKQRRIKLGFTQADVGLALGTLYGNVFSQTTICRFEALQLSFKNMCKLPPLLNKWLEEADSS [K64P] here?
**A.** -0.931 ± 0.19

**Q.** Which abundance fitness does the source give for EDTPTSDDLEQFAKQFKQRRIKLGFTQADVGLALGTLYGNVFSQTTICRFEALQLSFKNMCKLIPLLNKWLEEADSS [K64I] here?
**A.** -0.246 ± 0.083

**Q.** For EDTPTSDDLEQFAKQFKQRRIKLGFTQADVGLALGTLYGNVFSQTTICRFEALQLSFKNMCKLVPLLNKWLEEADSS [K64V], which abundance fitness is on record?
**A.** -0.155 ± 0.034

**Q.** Which abundance fitness does the source give for EDTPTSDDLEQFAKQFKQRRIKLGFTQADVGLALGTLYGNVFSQTTICRFEALQLSFKNMCKLKPLLCKWLEEADSS [N68C] here?
**A.** -0.096 ± 0.13

**Q.** Which abundance fitness does the source give for EDTPTSDDLEQFAKQFKQRRIKLGFTQADVGLALGTLYGNVFSQTTICRFEALQLSFKNMCKLKPLLDKWLEEADSS [N68D] here?
**A.** -0.182 ± 0.12

**Q.** With EDTPTSDDLEQFAKQFKQRRIKLGFTQADVGLALGTLYGNVFSQTTICRFEALQLSFKNMCKLKPLLMKWLEEADSS [N68M] as the variant, how does the abundance fitness read?
**A.** -0.284 ± 0.27

**Q.** With EDTPTSDDLEQFAKQFKQRRIKLGFTQADVGLALGTLYGNVFSQTTICRFEALQLSFKNMCKLKPLLLKWLEEADSS [N68L] as the variant, how does the abundance fitness read?
**A.** 0.004 ± 0.07

**Q.** For EDTPTSDDLEQFAKQFKQRRIKLGFTQADVGLALGTLYGNVFSQTTICRFEALQLSFKNMCKLKPLLAKWLEEADSS [N68A], which abundance fitness is on record?
**A.** -0.007 ± 0.077

**Q.** Which abundance fitness does the source give for EDTPTSDDLEQFAKQFKQRRIKLGFTQADVGLALGTLYGNVFSQTTICRFEALQLSFKNMCKLKPLLGKWLEEADSS [N68G] here?
**A.** 0.074 ± 0.065

**Q.** For EDTPTSDDLEQFAKQFKQRRIKLGFTQADVGLALGTLYGNVFSQTTICRFEALQLSFKNMCKLKPLLPKWLEEADSS [N68P], which abundance fitness is on record?
**A.** -0.98 ± 0.47
